# Assay results: the nanobody polyreactivity screen of Harvey et al. (2022)
# Assay: yeast display, Sf9 membrane polyspecificity reagent, FACS + sequencing; frameworks hold sequencing errors
# Method in brief: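 Nanobodies from a synthetic yeast display library (Saccharomyces cerevisiae BJ5465), induced 36–48 hours with galactose, were stained 1 hour at 4 °C with 10% biotinylated, detergent-solubilized Sf9 membrane reagent, enriched on streptavidin microbeads, then FACS-sorted. Anti-HA (expression) and streptavidin (reagent binding) fluorescence set low and high (top ~1%) gates. Polyreactivity labels come from the gate of origin. Genes were colony-PCR amplified, MiSeq 2 × 250 sequenced and filtered by CDR length.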
row,Sequence,polyreactivity (PSR sort gate)
1,QVQHVESGGGLVQAGGSLRLSCAASGFIFWYYAMGWYRKAPGKERELVAAISSRGGSTYYADSVKGRFTISRDNAKNTVYLQLNSLKPEDTAGYYCATPSKALPPHGRAILDYWGQGTQVTVSS,high polyreactivity
2,QVQLVESGGGLVQAGGSLRLSCAASGSTIQSNMGWYRQAPGKERELVAAITTNGSSTYYADSVKGRFTISRDNAKNTVYLQMNCLKPEDTAVYDCAAGPRYRYYYGWYDYWGQGTQVNVSS,high polyreactivity
3,QVHLVESGGGLVQAGGSLRLSCAASGFNFNKYALGWYRQAPGKERELVAAITIGGSTYYADSVKGRFTISRDNAKNTVYFQMNSLKPEDTAVYYCAAVQGKVRGGYYWGQGTQVTVSS,high polyreactivity
4,QVQLVESGGGLVQAGGSLRLSCAPPDLPSVVMLWDGIDRRLGKKGSSLPLLLLLVVSHADSVKGRFTISRDNAKNTVYLQMNSLKPDDTAVYYCAVAVLPWQLYSESYAEYDYWGQGTQVTVSS,low polyreactivity
5,QVQLVESGGGLVQAGGSLRLSCAASGLTFGVYAMGWYRQAPGKERELVASIRSGGSTYYADSVKGRFTISRDNAKNTVYLQMNSLKPEDTAVYYCAKGTFDLHYRKRYNYWGQGTQVTVSS,low polyreactivity
6,QVQLEESGGGLVQAGGSLRLSCAASGFTFNLYTMGWYRQAPGKERELVAAISRSGDRTYYADSVKGRFTISRDNAKNTVYLQMNSLKPEDTAVYYCAARSYRPTRGDYWGQGTQVTVSS,high polyreactivity
7,QVQLVESGGGLVQAGGSLRLSCAASGRTFKYNAMGWYRQAPGKERELVATISGSGGRTYYADSVKGRFTISRDNAKNTVYLQMNSLKPEDTAVYYCNAPRVKWLDWGQGTQVTVSS,high polyreactivity
8,QVQLVESGGGLVQAGGSLRLSCAASGNIFGNNAMGWYRPEPGKERELVAAISSSGTSTYYADSVKGRFTISLDNAKNTVYLQMNSLKPEDTAVYYCNADPLPYDGYYDYDYWGQGTQVTVSS,low polyreactivity
9,QVQLVESGRGLVQAGGSLRLRCAASGSTFNENVMGWYRQAPGKERELVAAIRTGSGSTYYADSVKGRFTISRDNAKNTVYLQMNSLKPEDTAVYYCYKDRGYSSLFSLFPGDYWGQGTQVTVSS,low polyreactivity
10,QVQLVESGGGLVQAGGSLRLSCAASGSTFAYYTMGWYRQAPGKERELVAAISRRGGSTYYADSVKGRFTISRDNAKNTVYLQMNSLKPEDTAVYYCAASFKGPGYYRYYYWGQGTQVTVSS,high polyreactivity
11,QFQLVESGGGLVQAGGSLRLSCAPSGGTFGSNAMGWYRQAPGKERELVAAISTTGGTTYYADSVKGRFTISRDNAKNTVYLQMNSLKPEDTAVYYCAKDGYVYGDWYTYAYVYWGQGTQVTVSS,low polyreactivity
12,QVQLVEAGGGLVQAGGSLRLSCAAAGRTFSANALGWSRQAPGKERELVATITLRGGSTNYADSVKGPFTISRDHAKNTVYLQINSLKPEDTAVYDCNAYVNANVRRAYWGFDYWGQGTHVTVSS,high polyreactivity
13,QVQLVESGVGLVQAGGSLRLSCAASGRIFSRYTMGWYRQAPGKERELVAAIRYSGGLTYYADSVKGRFTISRDNAKNTVYLQMNSLKPEDTAVYYCATQVYLGYDKLYGYWGQGTQVTVSS,high polyreactivity
14,QDQLVESGGGLVQAGGSLRLSCAASGSTFWANAMGWYRQAPGKEWELDARITYSGGSTYYADSVKGRFTISRDYAKNTVYLQMNSLKPEDTAVYYCAAEHYLCYDYWGQGTQVTVSS,low polyreactivity
15,QVQLLESGGGIVQAGGSLRLSCAASGRTFYVYGMGWYRQAPGKERELVAAISKRGDNTYYADAVKGRFTISRDNAKNTVYLQMNSLKPEDTAVYYCNVKLYGGRSDYWGQGTQVTVSS,high polyreactivity
16,QVQLVDSGGGLVQAGGSLRLSCSASGYIFYANTMGWYRQAPGKEREFVATISWIGSTYYADSVKGRFTISRDNAKNTVYLQMNSLKPEDTAVYYCNARYTYRRYGRYDYWGQGTQVTVSS,high polyreactivity
17,QFQLVESGGGLVQAGGSLRLSCAASGFIFAVNAMGWYRQAPGKERELVAAISSSGTTNYADSVKGRFTISRDNAKNTVYLQMNSLKPEDTAVYYCNKRWRDKYPQYDYWGQGTQVTVSS,low polyreactivity
18,QVQLVESGGGLVQAGGSLRLSCAASGFTFGRNAMGWYRQAPGKERELVASIDWSGGSTYYADSVKGRFTISRDNAKNTVYLQMNSLIPEDTAVDYCAVGPNSVGNRSYGFDYWGQGTQVTVSS,low polyreactivity
19,QVQLVESGGGLVQAGGSLRLSCAASGLTFHPYAMGWYRQAPGKERELVAAISSRGTSTYYADSVKGRFTISRDNAKNTVYLQMNSLKPEDTAVYYCAARHGPRAEAMYYWGQGTQVTVSS,high polyreactivity
20,QVQLVESGGCLVQAGGSLRLSCAASGNTLRTYGMGWYRQAPGKESEFVAAITYSGGSTYYADSVKGRFTISRDNAKNTVYLQMNSLKPEDTAVYYCAARYRSHYRRITPYDSWGQGTQVTVSS,high polyreactivity
21,QVQLVESGGGLVQAGGSLRLSCAASGSTFLTNVMGWYRQAPGKEREFVAAITANGGRTYYADSVKGRFTISRDYAKMTVYLQMNSLKPEDTAVYYAVETAWSYNSNYWFDYWGEGTQVTVSS,high polyreactivity
22,QVQLVESGGGLVQAGGSLRLSCAASGRTFYKYAMGWYRQAPGKERELVAVINWSGGRTYADSVKGRFTISRDNAKNTVYLQMNSLKPEDTAVYYCNAESYEFHRAWGDYDYWGQGTQVTVSS,low polyreactivity

row,Sequence,polyreactivity (PSR sort gate)
1,QVQLVESGGGLVQAGGSLRLICAASGSIFLTNAMGWYRQAPGKEREFVAAIDWGCTITYYADSVKGRFTISRDNAKNTVYLQMNSLKPEDTAVYYCGADPTYPYGYWGQGTQVSVSS,low polyreactivity
2,QVQLVESGGGLVQAGGILRLSCAASGYTFWDYAMGWYRQAPGKEREFVAGISFSDGGTYYADSVKVRFTISRDNAKNTVYLQMNSLKPEDTAVYYCAVPQDSGYGVSEHYNWGQGTQVTVSS,low polyreactivity
3,QVQLVESGGGLVQAGGSLRLSCAASGSIFYYYAMGWYRQAPGKERELVASISRSGGSTFYADSVKGRFTISRDNAKNTVYLQMNSLKPEDTAVYYCATGWYYSPYNYWGQGTQVTVSS,high polyreactivity
4,QVQLVESGGGLVQAGGSLRLSCAASGRTFYPNAMGWYRQAPGKERELVAAISYSGGSTYYADSVKGRFTISRDNAKNTVYLQMNSLKPEDTAVYYCAAEFSLDKRDYWGQGTQVTVSS,low polyreactivity
5,QVQLVESGGGLVQAGGSLRLSCADSGRIYYSNAMGWSRQAPGKEREWVAAISRSGVRTYYADSVKGRYSISRDNAKNTVYLQKNSLKPEDTADYYCAAVIYGTTPQDEYDYWGQGTQVTVSS,low polyreactivity
6,QVQLVESGGCLVQEGGSLRLSCAASGITFYLYAMGWYSQGPGKERELVATISRSGGSTYADSVKGRFTISRDNAKNNVYLQRNSLKPEDTAVDYCNADGWYGYWGQGTQVTVSS,low polyreactivity
7,QVQLVESGGGLVQAGGSLRLSCAASGSTFPHNPMGWYRQQPGKERELVAAISVGGGSKHYADSVKGRFTISRDNAKNTVYFQMNSLKPEDTAVYYCAKDYAYQYSFVTYDYWGQGTLVTVSS,low polyreactivity
8,QVQLVESGGGLVQAGGSLRLSCAASGITSSAYAMGWYRQAPGKERELVARITWSGGRTHYADSVKGRFTISRDNAKNTVYLQMNSLKPEDTAVYYGYWLGYKEDDYWGQGTQVTVSS,high polyreactivity
9,QVQLVESGGGLVQAGGSLRLSCADSGNIFYKYDMGWYRQAPGKERELVATISSDANTKYADSVKGRFTISRDNAKNTVYLHMNSLKPEDTAVYYCNVKDPVVRGALRDPTEYDSWGQGTQVTVSS,low polyreactivity
10,QVQLVESGGGLVQAGGSLRLSCAASGFIFRYNAMGWYRQAPGKERELVARISSGGSTNYADSVKGRFTISRDNAKNTVYLQMNSLIPEDTAVYYCAVKQYWYIWSGYGYDYWGQGTQVTVSS,high polyreactivity
11,QVQLVESVGGLVQAGGSLRLICAASGSIFLDNAKGCYRQAPVKERELVSAISWGGGSTYYADSVKGRFTISRDNAKNTVYVQMNSLKPEDTAVYYCAAESYYYIRYFDYSRWMGYWGQGTQVTVSS,low polyreactivity
12,QVQLVESCGGLVQAGGSLRLSCAASGFTFVYYAMGWYRKAPGKEREFVAAISKSGGSTYYADSVKGRFTISRDNAKNTVYLQMNSLKPEDTAVYYCAARSYQGTSSGRVTRRYDYWGQGTQVTVSS,high polyreactivity
13,QVQLVESGGGLVQAGGSLRLSCAASGSTSYPYAMGWYIQAPGQERELVATINYSGARTYYADSVKGRFTISRDNAKNTVYFQMNSLKPEDTAVYYCAATVYWRLEHDYWGQGTQVTVSS,low polyreactivity
14,QVQLVESGGGLVQAGGSLRLSCSASGLTFYGYVMGWYRQAPGKERELVASISRSGRRTYYADSVKGRFTISRDNAKNTVYLQMNSLKPEDTAVYYCAAADHVGQEDDYWGLGTQVTVSS,low polyreactivity
15,QVQLVESGGGLVQAGGSLRLSCAASGFTFSPNAMGWYRQAPGKERELVAAIDWSGDRTYSADSVKGRFTISRDNAKNTVYLQMNSLKPEDTAVYYCNVVRRSPGDYSYFYWGQGTQVTVSS,low polyreactivity
16,QVQHVESVGGLVQAGGSLRLSCAPSGSIFWDNAMGWYRQAPGKERELVAAITSSGDTTYYADSVKGRFTISRDNAKNTVYLQMNSLKQEDTAVYYCAKVFGPTDYLTGTFKGDYWGQGTQVTVSS,low polyreactivity
17,QVQLVESGGGLVQAGGSLRLSCAASGITFTGYDMGWYRQAPGIERELVADISNGSSTDYADSVKGRFTISRDNAKNTVYFQMISLKPEDTAVYYCAVDIDNWSEYDYWGHGTQVTVSS,low polyreactivity
18,QVQLVESGAGLVQAGGSLRLSCAASGRIFGYYAMGWYRQAPGQERELVATIRGGGSTNYADSVKGRFTISRDNAKNTVYLQMNSLKPEDTAVYVCAKPGAKWRGFDYWGQGTQVTLSS,low polyreactivity
19,QVQLVESGGGLVQAGGSLRLSCAASGRTFALYAMGWYRQATGKERELVAAITWSGGSTYYADSVKGRFTISRDNAKNTVYLQMNSLKPEDTAVYYCAAQWPKSKYGYWGQGTQVTVSS,high polyreactivity
20,QVQLVESGGGLVHAGGSLRLSCAASGFIFSSYAMGWYRPAPGKERELVAAITSRGGSTYYADSVKGRYTISRDNAKNTVYLQMNSLKPEDTAVYYCAADQGVPSTYDYWGQGTQVTVSS,low polyreactivity
21,QVQLVESGGGLVQAGGSLRFSCSASGSIFNYYTMGWYRQAPGKERELVAVITSGGSTYYADSVKGRFTISRDNAKNTVYLQMNSLKPEDTAVYYCAAKRRSYLKQGYSVGYWGQGSQVTVSS,high polyreactivity
